US20200239555A1 (STATEN BIOTECHNOLOGY B V, published 2020)
“And” between values parts separate entries of the source, which are not always exact repeats. Equal values may be shown once.

How the values were obtained:
[1] = biological target: T1, biotinylated native human ApoC3 (human, UniProt P02656 21-99, biotinylated (site not stated)); test: SPR, IgG1 over biotinylated ApoC3 on SA chip
T1 construct: also called biotinylated human ApoC3
How it was run: (§1)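 Biotinylated native human ApoC3 was captured on a streptavidin chip (~500 RU), and IgG1 at 1-50 nM was injected in HBS-EP at pH 7.4, or at pH 5.5 with 10 mM citrate added. Dissociation was followed for 5 min. Double-referenced sensorgrams were fit to a 1:1 Langmuir model, and fits were considered not applicable when kd was below 1×10⁻⁶ 1/s.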

[2] = biological target: T1, biotinylated native human ApoC3; test: SPR, IgG1 over biotinylated ApoC3 on SA chip, pH 7.4
How it was run: as §1

[3] = biological target: T1, biotinylated native human ApoC3; test: SPR, IgG1 over biotinylated ApoC3 on SA chip, pH 7.4; pH 7.4
Method: Biotinylated native human ApoC3 was captured on a streptavidin coated SPR chip (GE Healthcare, cat. nr. BR100032) at pH 7.4, in accordance with the method provided by Biacore, by injection of 20 μl 10 μg/ml biotinylated native human ApoC3 reaching the surface density of approximately 500 RU. 60 μL of test antibody in 1-50 nM range diluted in HBS-EP buffer (GE, cat # BR-1008-26; 0.010 M HEPES, 0.150M NaCl, 3 mM EDTA, 0.05% (v/v) surfactant P20, pH 7.4) was injected and passed through the flow cells at a flow rate of 30 μl/min, followed by an off-rate wash at pH7.4 for 5 min. After the dissociation, the flow cell surfaces were regenerated by injecting 10 μl of 10 mM NaOH/1 M NaCl and 10 μl of 10 mM glycine at pH1.5. The assay was repeated at pH5.5 using the same general protocol, where the running and sample dilution buffer was replaced by a HBS-EP buffer supplemented with citrate buffer to 10 mM final concentration and pH adjusted to 5.5.
The resulting sensorgrams were analyzed using the BIAevaluation 4.1 software using Langmuir 1:1 binding model to derive binding kinetics. Data was zero adjusted and the reference cell sensorgrams were subtracted. Sensorgrams were double referenced to no-analyte blank assay. Fitted parameters were considered not applicable if off-rate values were below the equipment's detection limit of kd: 1×10⁻⁶ 1/s.

native human ApoC3 [4] = biological target: T2, native human ApoC3 (human, UniProt P02656 21-99); test: SPR, IgG1 over ApoC3 on CM5 chip, pH 5.5
T2 construct: also called nhuApoC3; native huApoC3
Method: (§2) Based on the results in Example 1, test scFv-Fc antibodies were generated as human IgG₁ antibodies. An SPR-based assay was employed, in which human ApoC3 protein was immobilized on a CM5 chip, and the binding kinetics of test antibodies to the coated chip were measured at both pH 7.4 and pH 5.5. Briefly, a solution of 50 μg/ml of native human ApoC3 in 10 mM acetate buffer at pH 4.5 was prepared and injected until the surface density reached approximately 500 RU. 60 μl of each test antibody was diluted in HBS-EP buffer (GE, cat. nr. BR-1008-26; 0.010 M HEPES, 0.150M NaCl, 3 mM EDTA, 0.05% (v/v) surfactant P20, pH 7.4), and was injected at a concentration as described in Table 9. The test antibodies were passed through the flow cells at a flow rate of 30 μl/min, followed by an off-rate wash at pH 7.4 or pH 5.5 for 5 min. The resulting sensorgrams were analyzed using the BIAevaluation 4.1 software applying the Langmuir 1:1 binding model to derive binding kinetics. Data was zero adjusted and the reference cell sensorgrams were subtracted.

native human ApoC3 [5] = biological target: T2, native human ApoC3; test: SPR, IgG1 over ApoC3 on CM5 chip, pH 7.4
Method: as §2

[6] = biological target: T1, biotinylated native human ApoC3; test: SPR, IgG1 over biotinylated ApoC3 on SA chip, pH 5.5
How it was run: as §1

T1 sequence (P02656 21-99): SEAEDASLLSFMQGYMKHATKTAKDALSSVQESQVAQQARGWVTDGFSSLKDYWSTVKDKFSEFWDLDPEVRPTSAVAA
T2 sequence (P02656 21-99): as above

B1: 5E5VH12_VLWT human IgG1 (antibody, V domains shown)
VH: QLQLVESGGGLVQPGGSLRLSCAASGFTFGTYSMRWVRQVPRKALEWVSSISTDGGGTAYRDSVKGRFTISRDNAKNTLYLQMNNLKPEDTAIYYCVIHGYSDWGQGTQVTVSS
VL: ATMLTQSPGSLSVVPGESASISCKTSQGLVHSDGKTYFYWFLQKPGQSPQQLIYQVSNRASGVPDRFTGSGSGTDFTLKISGVKAEDAGVYYCAQGTYYPHTFGSGTRLEIK
KD pH5.5/KD pH7.4 [1]: 27.6 | Kd [2]: 0.0171 nM and 0.02 nM | koff [2]: 1.12e-05 s⁻¹ | kon [2]: 656000 M⁻¹ s⁻¹ | Ka [3]: 5.84e+10 M⁻¹ | koff (native human ApoC3 [4]): 0.000374 s⁻¹ | kon (native human ApoC3 [4]): 366000 M⁻¹ s⁻¹ | koff (native human ApoC3 [5]): 1.38e-05 s⁻¹ | kon (native human ApoC3 [5]): 393000 M⁻¹ s⁻¹ | Ka [6]: 2.12e+09 M⁻¹ | Kd [6]: 0.472 nM and 0.47 nM | koff [6]: 0.000143 s⁻¹ | kon [6]: 302000 M⁻¹ s⁻¹
